Measurements: US20210269772A1, “COMPOSITIONS AND METHODS RELATED TO APTAMER-BASED REVERSIBLE CELL SELECTION” (UNIVERSITY OF WASHINGTON, published 2021)

B1: A8 (ssDNA)
DNA: ATCCAGAGTGACGCAGCAGCTCGATCGTATAGCCGTGACGCAGCTTGAAATGGGATCGCGTCCACAGTTTTGGACACGGTGGCTTAGT
B2: A3 (ssDNA)
DNA: ATCCAGAGTGACGCAGCAACAGAGGTGTAGAAGTACACGTGAACAAGCTTGAAATTGTCTCTGACAGAGGTGGACACGGTGGCTTAGT
B3: A1 (ssDNA)
DNA: ATCCAGAGTGACGCAGCACGCAGCACCCGTGGTAGTGTATCAGGGAGACACTACGTGATGCAGCTTGAAATGGACACGGTGGCTTAGT

Tests used:
[1] = target: CD8 alpha (CD8a) on CD8+ T cells / PBMC (Homo sapiens, UniProt P01732 P01732:22-235); test: flow; apparent Kd on CD8+ T cells, 4 C, 5.5 mM Mg; binding reduced 73-77% by CD8a siRNA; details: label: 5'-FAM (cells); biotin (BLI)
[2] = target: CD8 alpha (CD8a) extracellular domain (Homo sapiens, UniProt P01732 P01732:22-182); test: BLI; 25 C, 5.5 mM Mg, tRNA, BSA, 0.01% tween-20; details: tags: Sino Biological; label: 5'-FAM (cells); biotin (BLI)
Method: The observed differences in binding affinity values determined by the two methods is expected. Mass transport limitations not present with BLI but present when staining cells in static wells will favor re-binding and thereby limit dissociation, improving the apparent KD of the faster dissociating A3 relative to the other aptamers.
BLI studies were conducted on a ForteBio Octet Red96 instrument at 25° C. with sample agitation at 1000 rpm. The sample buffer used for all steps was comprised of binding buffer with 0.01% tween-20. Streptavidin-coated biosensors were loaded with 50nM biotinylated aptamer until all sensors (except for the reference) reached a capture threshold of 0.5 nm. After a 100 second rinse and baseline steps in buffer alone, sensors were exposed to a 1:3 dilution series of recombinant human CD8a protein (Sino Biological) ranging from 150nM to 5.56nM. Association with protein was monitored for 1200 sec, and dissociation was carried out for 600 second in buffer alone. Data analysis was carried out using Octet Data Analysis 9.0 software (ForteBio). Kinetic constants were calculated by conducting a global fit of the several processed association and dissociation curves from the protein dilution series to a 1:1 binding model. The quality of the fit was evaluated by the R2 and χ2 values.

CD8 alpha (CD8a) on CD8+ T cells / PBMC, sequence (P01732 22-235, one chain of several): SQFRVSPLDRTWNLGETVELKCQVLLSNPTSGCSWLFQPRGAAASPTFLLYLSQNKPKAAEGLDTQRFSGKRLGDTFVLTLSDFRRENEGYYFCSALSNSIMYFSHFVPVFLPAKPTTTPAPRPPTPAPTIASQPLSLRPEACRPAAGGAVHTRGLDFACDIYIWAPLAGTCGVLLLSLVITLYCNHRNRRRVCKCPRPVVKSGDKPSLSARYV
CD8 alpha (CD8a) extracellular domain, sequence (P01732 22-182, one chain of several): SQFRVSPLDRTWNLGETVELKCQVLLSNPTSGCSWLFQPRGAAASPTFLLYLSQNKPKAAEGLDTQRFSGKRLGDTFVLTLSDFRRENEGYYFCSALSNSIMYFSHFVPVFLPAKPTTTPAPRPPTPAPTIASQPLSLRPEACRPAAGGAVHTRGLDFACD

Binder | Kd [1] [nM] | Kd [2] [nM]
B1 | 2.4 | –
B2 | 1.9 | –
B3 | 18.3 | 20.1
